The data set deals with the molecule itself. In words: cryo-EM structure.

B1: full length human TRPML1 with the V432A/A433G mutations (natural protein, UniProt Q9GZU1 1-580, looked up)
chain: MTAPAGPRGSETERLLTPNPGYGTQAGPSPAPPTPPEEEDLRRRLKYFFMSPCDKFRAKGRKPCKLMLQVVKILVVTVQLILFGLSNQLAVTFREENTIAFRHLFLLGYSDGADDTFAAYTREQLYQAIFHAVDQYLALPDVSLGRYAYVRGGGDPWTNGSGLALCQRYYHRGHVDPANDTFDIDPMVVTDCIQVDPPERPPPPPSDDLTLLESSSSYKNLTLKFHKLVNVTIHFRLKTINLQSLINNEIPDCYTFSVLITFDNKAHSGRIPISLETQAHIQECKHPSVFQHGDNSFRLLFDVVVILTCSLSFLLCARSLLRGFLLQNEFVGFMWRQRGRVISLWERLEFVNGWYILLVTSDVLTISGTIMKIGIEAKNLASYDVCSILLGTSTLLVWVGVIRYLTFFHNYNILIATLRVALPSVMRFCCCAGVIYLGYCFCGWIVLGPYHVKFRSLSMVSECLFSLINGDDMFVTFAAMQAQQGRSSLVWLFSQLYLYSFISLFIYMVLSLFIALITGAYDTIKHPGGAGAEESELQAYIAQCQDSPTSGKFRRGSGSACSLLCCCGRDPSEEHSLLVN
B1: the binding result is recorded as “binds”.

The values above are taken from publication PMC12174366 (Nature Communications, 2025).
